Results as given in publication PMC8263776, “Calmodulin-dependent KCNE4 dimerization controls membrane targeting” (Scientific Reports, 2021).

B1: KCNE4-CFP [mouse] / KCNE4-YFP [mouse] (parent)
chain 1: MLRMEPLNSTYPSAAASSSPLESHVPSNSSGNGNEYFYILVVMSFYGVFLIGIMLGYMKSKRREKKSSLLLLYKDEERLWGEAMKPLPMMSGLRSGQVPMMLNMLQESVAPALSCTLCSMEGDSVSSESSSPDVHLPIQEEGADDELEETSETPLNDSSEGSSENIHQNS
chain 2: B1 chain 1

Variants of: B1
Test: FRET (CFP/YFP) in cells
Conditions: with KCNE4-YFP [mouse]; HEK-293 cells; n > 25 cells; parent: 12; read off a plot

| response [%] | Variant |
| --- | --- |
| 7.2 | chain 1 L69A L70A L71A L72A |
